Data as given in article PMC9352680, “A comprehensive thermodynamic model for RNA binding by the Saccharomyces cerevisiae Pumilio protein PUF4”.

T1: PUF4 RNA-binding domain (Saccharomyces cerevisiae, UniProt P25339 537-888)
T1 sequence: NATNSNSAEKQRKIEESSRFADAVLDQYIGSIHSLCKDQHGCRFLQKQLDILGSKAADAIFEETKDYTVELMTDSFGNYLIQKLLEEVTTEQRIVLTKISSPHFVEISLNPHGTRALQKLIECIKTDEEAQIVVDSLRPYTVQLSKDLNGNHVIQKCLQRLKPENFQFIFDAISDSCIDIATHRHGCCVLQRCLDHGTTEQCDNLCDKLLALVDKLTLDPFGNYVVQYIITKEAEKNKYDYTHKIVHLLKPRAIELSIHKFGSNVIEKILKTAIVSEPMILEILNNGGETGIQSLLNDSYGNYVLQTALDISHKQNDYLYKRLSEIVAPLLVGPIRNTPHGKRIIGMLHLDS


biological target: T1, PUF4 RNA-binding domain; test: Mg; RNA-MaP; 20 mM Na-HEPES pH 7.4, 30 mM KOAc, 0.75 mM MgCl2, 0.1% Tween-20, 5% glycerol, 0.1 mg/mL BSA, 2 mM DTT; 25 C; 0.0125-409.6 nM protein; conditions: tags: N-His6-TEV cleaved; C-SNAP kept, Cy3B-labelled; label: tethered on chip by stalled RNA polymerase

| Binder | Kd [nM] |
| --- | --- |
| Ia_S4_P4E.1_K4.1_C4.1_H4.1_A4.1_F4.1_[A9G]_T4.1 (ssRNA) RNA: UUUGACAACUGAUCGUUCUUUCUUGUAUAUUGUUCUUUCUCGAUCAGUUGUCUUU | 3.07 |
| Ib_S4_P4E.1_K4.1_C4.1_H4.1_[A4T]_A4.1_[T7C]_F4.1_T4.1 (ssRNA) RNA: UUUGACAACUGAUCGUUCUUUCUUGUUUACUAUUCUUUCUCGAUCAGUUGUCUUU | 7.04 |
| Ib_S4_P4E.1_K4.1_C4.1_H4.1_[A4T]_A4.1_[A6C]_F4.1_T4.1 (ssRNA) RNA: UUUGACAACUGAUCGUUCUUUCUUGUUUCUUAUUCUUUCUCGAUCAGUUGUCUUU | 54.8 |
| Ib_S4_P4E.1_K4.1_C4.1_H4.1_[A4C]_A4.1_[T7A]_F4.1_T4.1 (ssRNA) RNA: UUUGACAACUGAUCGUUCUUUCUUGUCUAAUAUUCUUUCUCGAUCAGUUGUCUUU | 19 |
| Ia_S4_P4E.1_K4.1_C4.1_H4.1_[G2T]_A4.1_F4.1_T4.1 (ssRNA) RNA: UUUGACAACUGAUCGUUCUUUCUUUUAUAUUAUUCUUUCUCGAUCAGUUGUCUUU | 253 |
| Ic_S4_P4E.1_K4.1_C4.1_H4.1_A4.1_[A6T]_[T7C]_F4.1_T4.1 (ssRNA) RNA: UUUGACAACUGAUCGUUCUUUCUUGUAUUCUAUUCUUUCUCGAUCAGUUGUCUUU | 2.33 |
| Ib_S4_P4E.1_K4.1_C4.1_H4.1_[A4C]_A4.1_[T7C]_F4.1_T4.1 (ssRNA) RNA: UUUGACAACUGAUCGUUCUUUCUUGUCUACUAUUCUUUCUCGAUCAGUUGUCUUU | 12.9 |
| Ib_S4_P4E.1_K4.1_C4.1_H4.1_[A4C]_A4.1_[A6T]_F4.1_T4.1 (ssRNA) RNA: UUUGACAACUGAUCGUUCUUUCUUGUCUUUUAUUCUUUCUCGAUCAGUUGUCUUU | 29.8 |
| Ib_S4_P4E.1_K4.1_C4.1_H4.1_[A4T]_A4.1_[T7G]_F4.1_T4.1 (ssRNA) RNA: UUUGACAACUGAUCGUUCUUUCUUGUUUAGUAUUCUUUCUCGAUCAGUUGUCUUU | 30.9 |
| Ia_S4_P4E.1_K4.1_C4.1_H4.1_[T3C]_A4.1_F4.1_T4.1 (ssRNA) RNA: UUUGACAACUGAUCGUUCUUUCUUGCAUAUUAUUCUUUCUCGAUCAGUUGUCUUU | 21 |
| Ic_S4_P4E.1_K4.1_C4.1_H4.1_A4.1_[T5C]_[T7A]_F4.1_T4.1 (ssRNA) RNA: UUUGACAACUGAUCGUUCUUUCUUGUACAAUAUUCUUUCUCGAUCAGUUGUCUUU | 0.996 |
| Ib_S4_P4E.1_K4.1_C4.1_H4.1_A4.1_[A6T]_[T7G]_F4.1_T4.1 (ssRNA) RNA: UUUGACAACUGAUCGUUCUUUCUUGUAUUGUAUUCUUUCUCGAUCAGUUGUCUUU | 5.79 |
| Ib_S4_P4E.1_K4.1_C4.1_H4.1_A4.1_[T5C]_[A6T]_F4.1_T4.1 (ssRNA) RNA: UUUGACAACUGAUCGUUCUUUCUUGUACUUUAUUCUUUCUCGAUCAGUUGUCUUU | 1.04 |
| Ib_S4_P4E.1_K4.1_C4.1_H4.1_A4.1_[A6C]_[T7G]_F4.1_T4.1 (ssRNA) RNA: UUUGACAACUGAUCGUUCUUUCUUGUAUCGUAUUCUUUCUCGAUCAGUUGUCUUU | 14.5 |
| Ib_S4_P4E.1_K4.1_C4.1_H4.1_A4.1_[A6C]_[T7C]_F4.1_T4.1 (ssRNA) RNA: UUUGACAACUGAUCGUUCUUUCUUGUAUCCUAUUCUUUCUCGAUCAGUUGUCUUU | 3.08 |
| Ib_S4_P4E.1_K4.1_C4.1_H4.1_A4.1_[T5A]_[T7C]_F4.1_T4.1 (ssRNA) RNA: UUUGACAACUGAUCGUUCUUUCUUGUAAACUAUUCUUUCUCGAUCAGUUGUCUUU | 2.55 |
| Ia_S4_P4E.1_K4.1_C4.1_H4.1_[G2A]_A4.1_F4.1_T4.1 (ssRNA) RNA: UUUGACAACUGAUCGUUCUUUCUUAUAUAUUAUUCUUUCUCGAUCAGUUGUCUUU | 10.3 |
| Ib_S4_P4E.1_K4.1_C4.1_H4.1_A4.1_[A6T]_[T7A]_F4.1_T4.1 (ssRNA) RNA: UUUGACAACUGAUCGUUCUUUCUUGUAUUAUAUUCUUUCUCGAUCAGUUGUCUUU | 1.36 |
| Ia_S4_P4E.1_K4.1_C4.1_H4.1_[G2C]_A4.1_F4.1_T4.1 (ssRNA) RNA: UUUGACAACUGAUCGUUCUUUCUUCUAUAUUAUUCUUUCUCGAUCAGUUGUCUUU | 227 |
| Ib_S4_P4E.1_K4.1_C4.1_H4.1_[A4C]_A4.1_[A6G]_F4.1_T4.1 (ssRNA) RNA: UUUGACAACUGAUCGUUCUUUCUUGUCUGUUAUUCUUUCUCGAUCAGUUGUCUUU | 191 |
| Ib_S4_P4E.1_K4.1_C4.1_H4.1_A4.1_[T5G]_[A6C]_F4.1_T4.1 (ssRNA) RNA: UUUGACAACUGAUCGUUCUUUCUUGUAGCUUAUUCUUUCUCGAUCAGUUGUCUUU | 4.82 |
| Ib_S4_P4E.1_K4.1_C4.1_H4.1_A4.1_[T5G]_[A6T]_F4.1_T4.1 (ssRNA) RNA: UUUGACAACUGAUCGUUCUUUCUUGUAGUUUAUUCUUUCUCGAUCAGUUGUCUUU | 5.58 |
| Ib_S4_P4E.1_K4.1_C4.1_H4.1_A4.1_[A6C]_[T7A]_F4.1_T4.1 (ssRNA) RNA: UUUGACAACUGAUCGUUCUUUCUUGUAUCAUAUUCUUUCUCGAUCAGUUGUCUUU | 0.977 |
| Ib_S4_P4E.1_K4.1_C4.1_H4.1_[A4T]_A4.1_[A6G]_F4.1_T4.1 (ssRNA) RNA: UUUGACAACUGAUCGUUCUUUCUUGUUUGUUAUUCUUUCUCGAUCAGUUGUCUUU | 64.1 |

| Binder | Kd [nM] |
| --- | --- |
| Ib_S4_P4E.1_K4.1_C4.1_H4.1_[A4C]_A4.1_[A6C]_F4.1_T4.1 (ssRNA) RNA: UUUGACAACUGAUCGUUCUUUCUUGUCUCUUAUUCUUUCUCGAUCAGUUGUCUUU | 110 |
| Ic_S4_P4E.1_K4.1_C4.1_H4.1_A4.1_[T5C]_[T7G]_F4.1_T4.1 (ssRNA) RNA: UUUGACAACUGAUCGUUCUUUCUUGUACAGUAUUCUUUCUCGAUCAGUUGUCUUU | 1.45 |
| Ib_S4_P5E.1_K5.1_C5.1_H5.1_A5.1_F5.1_[T8G]_[A10G]_T5.1 (ssRNA) RNA: UUUGACAACUGAUCGUUCUUUCUUGUAUUAGUGUUCUUUCUCGAUCAGUUGUCUUU | 488 |
| Ic_S4_P5E.1_K5.1_C5.1_H5.1_A5.1_F5.1_[T9A]_[A10C]_T5.1 (ssRNA) RNA: UUUGACAACUGAUCGUUCUUUCUUGUAUUAUACUUCUUUCUCGAUCAGUUGUCUUU | 7.38 |
| Ib_S4_P5E.1_K5.1_C5.1_H5.1_[G2C]_A5.1_F5.1_[T8C]_T5.1 (ssRNA) RNA: UUUGACAACUGAUCGUUCUUUCUUCUAUUACUAUUCUUUCUCGAUCAGUUGUCUUU | > 2300 |
| Ib_S4_P5E.1_K5.1_C5.1_H5.1_[T3C]_A5.1_F5.1_[T8A]_T5.1 (ssRNA) RNA: UUUGACAACUGAUCGUUCUUUCUUGCAUUAAUAUUCUUUCUCGAUCAGUUGUCUUU | 1010 |
| Ib_S4_P5E.1_K5.1_C5.1_H5.1_A5.1_F5.1_[T9A]_[A10T]_T5.1 (ssRNA) RNA: UUUGACAACUGAUCGUUCUUUCUUGUAUUAUAUUUCUUUCUCGAUCAGUUGUCUUU | 1.18 |
| Ib_S4_P5E.1_K5.1_C5.1_H5.1_[A4C]_A5.1_F5.1_[T8A]_T5.1 (ssRNA) RNA: UUUGACAACUGAUCGUUCUUUCUUGUCUUAAUAUUCUUUCUCGAUCAGUUGUCUUU | 26.8 |
| Ib_S4_P5E.1_K5.1_C5.1_H5.1_[G2A]_A5.1_F5.1_[T8A]_T5.1 (ssRNA) RNA: UUUGACAACUGAUCGUUCUUUCUUAUAUUAAUAUUCUUUCUCGAUCAGUUGUCUUU | 598 |
| Ib_S4_P5E.1_K5.1_C5.1_H5.1_[T3C]_A5.1_F5.1_[T8C]_T5.1 (ssRNA) RNA: UUUGACAACUGAUCGUUCUUUCUUGCAUUACUAUUCUUUCUCGAUCAGUUGUCUUU | 478 |
| Ib_S4_P5E.1_K5.1_C5.1_H5.1_[T1C]_A5.1_F5.1_[A10C]_T5.1 (ssRNA) RNA: UUUGACAACUGAUCGUUCUUUCUCGUAUUAUUCUUCUUUCUCGAUCAGUUGUCUUU | > 2300 |
| Ib_S4_P5E.1_K5.1_C5.1_H5.1_[A4G]_A5.1_F5.1_[T8C]_T5.1 (ssRNA) RNA: UUUGACAACUGAUCGUUCUUUCUUGUGUUACUAUUCUUUCUCGAUCAGUUGUCUUU | 28.4 |
| Ib_S4_P5E.1_K5.1_C5.1_H5.1_[T1C]_A5.1_F5.1_[T8A]_T5.1 (ssRNA) RNA: UUUGACAACUGAUCGUUCUUUCUCGUAUUAAUAUUCUUUCUCGAUCAGUUGUCUUU | 964 |
| Ib_S4_P5E.1_K5.1_C5.1_H5.1_[A4C]_A5.1_F5.1_[T8C]_T5.1 (ssRNA) RNA: UUUGACAACUGAUCGUUCUUUCUUGUCUUACUAUUCUUUCUCGAUCAGUUGUCUUU | 35.7 |
| Ib_S4_P5E.1_K5.1_C5.1_H5.1_[G2A]_A5.1_F5.1_[T8G]_T5.1 (ssRNA) RNA: UUUGACAACUGAUCGUUCUUUCUUAUAUUAGUAUUCUUUCUCGAUCAGUUGUCUUU | 628 |
| Ic_S4_P5E.1_K5.1_C5.1_H5.1_A5.1_F5.1_[T8C]_[A10G]_T5.1 (ssRNA) RNA: UUUGACAACUGAUCGUUCUUUCUUGUAUUACUGUUCUUUCUCGAUCAGUUGUCUUU | 50.3 |
| Ib_S4_P5E.1_K5.1_C5.1_H5.1_[T1G]_A5.1_F5.1_[T9A]_T5.1 (ssRNA) RNA: UUUGACAACUGAUCGUUCUUUCUGGUAUUAUAAUUCUUUCUCGAUCAGUUGUCUUU | 1300 |
| Ib_S4_P5E.1_K5.1_C5.1_H5.1_A5.1_F5.1_[T8A]_[A10G]_T5.1 (ssRNA) RNA: UUUGACAACUGAUCGUUCUUUCUUGUAUUAAUGUUCUUUCUCGAUCAGUUGUCUUU | 36.4 |
| Ib_S4_P5E.1_K5.1_C5.1_H5.1_A5.1_F5.1_[T9G]_[A10C]_T5.1 (ssRNA) RNA: UUUGACAACUGAUCGUUCUUUCUUGUAUUAUGCUUCUUUCUCGAUCAGUUGUCUUU | 37 |
| Ib_S4_P5E.1_K5.1_C5.1_H5.1_[T1C]_A5.1_F5.1_[T8C]_T5.1 (ssRNA) RNA: UUUGACAACUGAUCGUUCUUUCUCGUAUUACUAUUCUUUCUCGAUCAGUUGUCUUU | 688 |
| Ib_S4_P5E.1_K5.1_C5.1_H5.1_A5.1_F5.1_[T8G]_[A10T]_T5.1 (ssRNA) RNA: UUUGACAACUGAUCGUUCUUUCUUGUAUUAGUUUUCUUUCUCGAUCAGUUGUCUUU | 393 |
| Ib_S4_P5E.1_K5.1_C5.1_H5.1_[A4T]_A5.1_F5.1_[T9A]_T5.1 (ssRNA) RNA: UUUGACAACUGAUCGUUCUUUCUUGUUUUAUAAUUCUUUCUCGAUCAGUUGUCUUU | 33.2 |
| Ib_S4_P5E.1_K5.1_C5.1_H5.1_[A4T]_A5.1_F5.1_[T8G]_T5.1 (ssRNA) RNA: UUUGACAACUGAUCGUUCUUUCUUGUUUUAGUAUUCUUUCUCGAUCAGUUGUCUUU | 107 |
| Ib_S4_P5E.1_K5.1_C5.1_H5.1_[A4C]_A5.1_F5.1_[T9A]_T5.1 (ssRNA) RNA: UUUGACAACUGAUCGUUCUUUCUUGUCUUAUAAUUCUUUCUCGAUCAGUUGUCUUU | 57.1 |
